The experiment addresses Somatostatin 2 receptor-eYFP-α fusion (E. coli). As to the kind of experiment: cell-based or functional assay.

With “somatostatin-14 (from UniProt P61278 103-116) (peptide)”, the EC50, arrestin assay (β-galactosidase complementation of β-arrestin-ω + GPCR-eYFP-α) was found to be 3 nM; the EC50, internalization assay (β-galactosidase complementation of FYVE-ω + GPCR-eYFP-α) worked out at 7 nM; the fold induction, internalization assay was 3 fold.

The values above are taken from patent publication US20100285451A1.
